US20250382344A1, “Soluble GLP1/GIP/NPY2 Receptor Triple Agonists” (Boehringer Ingelheim International GmH, priority 2024, published 2025)
Numbering of substitutions follows the chain as printed. *1 amine or outer side, *2 acyl side, *3 side chain or, on linkers, in order; H or OH if unused. Where no end group is shown, it is not given here. Side-chain parts run from the residue outwards. [ ]: non-standard residue; d: D form. The star is where a group is joined. C18 diacid = O=C(O)CCCCCCCCCCCCCCCCC(=O)*; γGlu = O=C(O)[C@H](CCC(=O)[*:2])N[*:1]; εLys = N[C@@H](CCCCN[*:1])C(=O)[*:2]; AEEA = NCCOCCOCC(=O)O; Aib = CC(C)(N)C(=O)O; Ahx = NCCCCCC(=O)O

T1: human neuropeptide Y2 receptor (human, UniProt P49146 1-381)
T1 sequence (looked up): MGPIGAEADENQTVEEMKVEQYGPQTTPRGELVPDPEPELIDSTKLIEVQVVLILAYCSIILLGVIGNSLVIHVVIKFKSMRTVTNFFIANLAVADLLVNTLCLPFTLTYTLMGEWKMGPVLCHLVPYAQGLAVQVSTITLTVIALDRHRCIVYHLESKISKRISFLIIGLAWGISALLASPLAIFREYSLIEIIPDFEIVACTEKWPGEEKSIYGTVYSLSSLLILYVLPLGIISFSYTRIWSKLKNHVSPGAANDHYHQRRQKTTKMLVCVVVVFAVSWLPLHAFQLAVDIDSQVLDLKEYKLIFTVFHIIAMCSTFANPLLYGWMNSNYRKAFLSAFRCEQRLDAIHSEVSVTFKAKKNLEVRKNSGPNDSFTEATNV

T2: human neuropeptide Y2 receptor (human, UniProt P49146 1-381)
T2 sequence (looked up): T1 sequence (looked up)

B1: Compound 98 (peptide)
peptide: YXEGTFTSDYSIXLEKQAQXEFVRHLINKXTRQRY
modifications: Aib at 2, 13, 20, 30; Lys29 epsilon-amino: C18DA-gGlu-gGlu-gGlu-gGlu-gGlu-OEG-OEG; C-terminal amide
B2: Compound 131 (peptide)
peptide: B1 peptide with E15D
modifications: Aib at 2, 13, 20, 30; Lys29 epsilon-amino: C18DA-gGlu-gGlu-gGlu-gGlu-gGlu-gGlu-eLys; C-terminal amide
B3: Compound 123 (peptide)
peptide: B1 peptide with K16A, E21A
modifications: Aib at 2, 13, 20, 30; Lys29 epsilon-amino: C18DA-gGlu-gGlu-gGlu-gGlu-gGlu-gGlu-eLys; C-terminal amide
B4: Compound 107 (peptide)
peptide: B1 peptide with E21A, I27L
modifications: Aib at 2, 13, 20, 30; Lys29 epsilon-amino: C18DA-gGlu-gGlu-gGlu-gGlu-gGlu-gGlu-eLys; C-terminal amide
B5: Compound 117 (peptide)
peptide: B1 peptide with E21A
modifications: Aib at 2, 13, 20, 30; Lys29 epsilon-amino: C18DA-gGlu-gGlu-gGlu-gGlu-gGlu-OEG-OEG; C-terminal amide
B6: Compound 38 (peptide)
peptide: B1 peptide with E21A
modifications: Aib at 2, 13, 20, 30; Lys29 epsilon-amino acylated with C18DA-gGlu-gGlu-gGlu-gGlu-gGlu-gGlu-gGlu; C-terminal amide
B7: Compound 49 (peptide)
peptide: B1 peptide with E21A
modifications: Aib at 2, 20, 30; aMeL at 13; Lys29 epsilon-amino acylated with C20DA-gGlu-gGlu-gGlu-gGlu-gGlu-gGlu; C-terminal amide
B8: Compound 10 (peptide)
peptide: B1 peptide with Q19E, E21A
modifications: Aib at 2, 13, 20, 30; Lys29 epsilon-amino acylated with C18DA-gGlu-gGlu-gGlu-gGlu-gGlu-gGlu-eLys; C-terminal amide
B9: Compound 13 (peptide)
peptide: B1 peptide with E21A
modifications: Aib at 2, 13, 20, 30; Lys29 epsilon-amino acylated with C18DA-gGlu-gGlu-gGlu-gGlu-gGlu-AHX; C-terminal amide

Target: T1, human neuropeptide Y2 receptor
Assay: cell-based or functional assay

| Binder | EC50, CreLuc reporter, 0.5% hP [nM] | EC50, CreLuc reporter, 100% hP [nM] |
| --- | --- | --- |
| Y[Aib]EGTFTSDYSI[Aib]LEKQAQ[Aib]AFVRHLINK([γGlu-γGlu-γGlu-εLys-γGlu-γGlu-γGlu-C18 diacid])[Aib]TRQRY-NH2 [Compound 168] | 27.7 |  |
| Y[Aib]EGTFTSDYSI[Aib]LDEQAQ[Aib]AFVRHLINK([εLys-γGlu-γGlu-γGlu-γGlu-γGlu-C18 diacid])[Aib]TRQRY-NH2 [Compound 108] | 20.3 | 120 |
| B1 | 27.3 | 202 |
| B2 | 17.5 | 85.9 |
| B3 | 51.6 | 232 |
| B4 | 13.3 | 20.3 |
| B5 |  | 39.2 |

Target: T2, human neuropeptide Y2 receptor
Assay: cell-based or functional assay

| Binder | EC50, CreLuc reporter, 0.5% hP [nM] | EC50, CreLuc reporter, 100% hP [nM] |
| --- | --- | --- |
| Y[Aib]EGTFTSDYSI[Aib]LEKQAQ[Aib]EFVRHLINK([εLys-γGlu-γGlu-γGlu-γGlu-γGlu-γGlu-γGlu-C18 diacid])[Aib]TRQRY-NH2 [Compound 30] | 33.9 | 81.1 |
| Y[Aib]EGTFTSDYSI[Aib]LEKQAQ[Aib]AFVRHLINK([γGlu-γGlu-εLys-γGlu-γGlu-γGlu-γGlu-C18 diacid])[Aib]TRQRY-NH2 [Compound 34] | 14.6 | 28 |
| Y[Aib]EGTFTSDYSI[Aib]LEKQAQ[Aib]AFVRHLINK([AEEA-γGlu-γGlu-γGlu-γGlu-γGlu-γGlu-C18 diacid])[Aib]TRQRY-NH2 [Compound 47] | 19.9 | 72.6 |
| B6 |  | 141 |
| B7 |  | 763 |
| B8 | 26.3 | 28.2 |
| B9 | 18.7 | 121 |
| Y[Aib]EGTFTSDYSI[Aib]LEKQAQ[Aib]AFVRHLINK([Ahx-γGlu-γGlu-γGlu-γGlu-γGlu-γGlu-C18 diacid])[Aib]TRQRY-NH2 [Compound 9] | 25.1 | 75.4 |
